As usually defined, the Kd is a measure of binding affinity in units of concentration. As a reminder, the koff is the first-order rate constant of dissociation.

Where “and” joins values, the source holds several entries; their conditions need not be identical. Equal values may be shown once.

Experiment [1] deals with T1, Human LAG-3 expressed on cells (human, UniProt P18627 23-525).
T1 sequence (looked up): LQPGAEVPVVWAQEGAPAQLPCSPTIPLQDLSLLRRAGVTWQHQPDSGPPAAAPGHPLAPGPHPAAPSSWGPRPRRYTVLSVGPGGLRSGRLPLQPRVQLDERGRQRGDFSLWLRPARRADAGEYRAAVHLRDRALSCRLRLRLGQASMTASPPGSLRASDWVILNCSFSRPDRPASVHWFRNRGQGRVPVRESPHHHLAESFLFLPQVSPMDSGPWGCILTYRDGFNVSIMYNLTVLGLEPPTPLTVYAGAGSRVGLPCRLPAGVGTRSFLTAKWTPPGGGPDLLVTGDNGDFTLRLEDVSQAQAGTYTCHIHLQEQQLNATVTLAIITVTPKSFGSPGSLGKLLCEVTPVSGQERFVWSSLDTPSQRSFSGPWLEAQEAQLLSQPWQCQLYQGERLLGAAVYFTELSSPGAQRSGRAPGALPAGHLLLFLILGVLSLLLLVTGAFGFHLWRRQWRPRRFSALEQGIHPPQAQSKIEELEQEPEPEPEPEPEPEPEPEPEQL
In words: cell-based or functional assay.

Experiment [2] deals with T2, Recombinant human LAG-3 ECD-His6 (human, UniProt P18627 23-433).
T2 construct: also called LAG-3-His; recombinant human LAG-3-His
T2 sequence: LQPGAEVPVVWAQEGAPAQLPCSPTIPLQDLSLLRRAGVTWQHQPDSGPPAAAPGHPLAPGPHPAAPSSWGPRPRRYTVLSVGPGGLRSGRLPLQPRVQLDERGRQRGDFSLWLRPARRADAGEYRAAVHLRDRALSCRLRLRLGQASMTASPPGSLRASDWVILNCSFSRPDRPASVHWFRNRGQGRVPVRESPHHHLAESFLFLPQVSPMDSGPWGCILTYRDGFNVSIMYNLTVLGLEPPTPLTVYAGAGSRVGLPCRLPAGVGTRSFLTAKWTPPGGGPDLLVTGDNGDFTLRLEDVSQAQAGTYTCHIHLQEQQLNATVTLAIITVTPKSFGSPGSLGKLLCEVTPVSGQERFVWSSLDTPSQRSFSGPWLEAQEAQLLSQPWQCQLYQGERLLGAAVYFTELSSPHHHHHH
Briefly: SPR Biacore T100, Anova comparison of KD on LAG-3 ECD-His6. The method, then:
(§1) Wild type fucosylated and afucosylated antibodies were compared for their ability to bind to recombinant human LAG-3 ECD with a C-terminal His6 (SEQ ID NO:51) using the Biacore® T100 (GE Healthcare®). Protein A was immobilised on a CM5 chip by primary amine coupling. This surface was then used to capture the humanised antibodies. Recombinant human LAG-3 ECD-His6 was then passed over the captured antibodies at 32, 8, 2, 0.5 and 0.125 nM and regeneration was carried out using 50 mM NaOH. The binding curves were double referenced with buffer injection (i.e. 0 nM) and the data was fitted to the T100 analysis software using the 1:1 model. The run was carried out at 25° C., using HBS-EP as the running buffer.
(§2) In order to investigate the statistical significance of this kinetic data, this experiment was repeated 3 times with the same batch of the four antibodies and the chimeric control. KD, ka and kd parameters were each log (base 10) transformed prior to separate statistical analyses. For each parameter, a mixed model analysis of variance (‘Anova’) was performed on transformed data, including terms for Run (random block effect) and Antibody.
(§3) From the Anova, geometric means were predicted for each antibody, along with statistically plausible ranges (95% confidence intervals) for each mean. Planned comparisons of antibodies were performed within the Anova. […]
For orientation: Surface plasmon resonance follows binding to a sensor surface in real time, without labels.

Experiment [3] concerns the target T2, Recombinant human LAG-3 ECD-His6. Briefly: SPR Biacore T100, Anova comparison of kd on LAG-3 ECD-His6. Here is the method: as §1, §2, §3
Experiment [4] concerns the target T3, Recombinant cynomolgus macaque LAG-3 ECD-His6 (cynomolgus macaque, UniProt P18627 24-433 (human entry)).
T3 construct: made in house; also called cyno LAG-3
T3 chain: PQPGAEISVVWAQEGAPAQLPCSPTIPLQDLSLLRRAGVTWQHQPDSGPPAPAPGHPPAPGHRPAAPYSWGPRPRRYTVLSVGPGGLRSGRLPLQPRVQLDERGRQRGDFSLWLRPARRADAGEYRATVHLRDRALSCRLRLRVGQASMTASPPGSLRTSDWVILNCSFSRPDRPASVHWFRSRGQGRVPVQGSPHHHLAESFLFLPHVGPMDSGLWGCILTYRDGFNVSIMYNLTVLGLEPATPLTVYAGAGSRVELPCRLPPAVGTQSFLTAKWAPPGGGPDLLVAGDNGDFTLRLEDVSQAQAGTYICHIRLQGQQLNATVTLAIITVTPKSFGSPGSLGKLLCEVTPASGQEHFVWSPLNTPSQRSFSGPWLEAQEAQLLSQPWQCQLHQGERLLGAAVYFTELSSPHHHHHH
In words: SPR Biacore T100, antibody captured on protein A, LAG-3 ECD-His6 analyte, 37 C, 1:1 model. Here is the method:
(§4) The binding cross reactivity of anti-LAG-3 humanised antibodies for both cynomolgus macaque (cyno) and baboon recombinant LAG-3 ECD-His6 (SEQ ID NOs 52 and 53, respectively) was assessed using the Biacore® T100 (GE Healthcare®).
(§5) Protein A was immobilised on a CM5 chip by primary amine coupling. This surface was then used to capture the humanised antibodies. In-house generated recombinant cynomolgus macaque and baboon LAG-3 ECD-His6 were then passed over the captured antibodies and regeneration was carried out using 50 mM NaOH. LAG-3 ECD-His6 was passed over at 16, 4, 1, 0.25 and 0.0625 nM. The binding curves were double referenced with buffer injection (i.e. 0 nM) and the data was fitted to the T100 analysis software using the 1:1 model. The run was carried out at 37° C. using HBS-EP as the running buffer.

Experiment [5] has as its target T4, Recombinant baboon LAG-3 ECD-His6 (baboon, UniProt P18627 24-433 (human entry)).
T4 construct: made in house
T4 chain: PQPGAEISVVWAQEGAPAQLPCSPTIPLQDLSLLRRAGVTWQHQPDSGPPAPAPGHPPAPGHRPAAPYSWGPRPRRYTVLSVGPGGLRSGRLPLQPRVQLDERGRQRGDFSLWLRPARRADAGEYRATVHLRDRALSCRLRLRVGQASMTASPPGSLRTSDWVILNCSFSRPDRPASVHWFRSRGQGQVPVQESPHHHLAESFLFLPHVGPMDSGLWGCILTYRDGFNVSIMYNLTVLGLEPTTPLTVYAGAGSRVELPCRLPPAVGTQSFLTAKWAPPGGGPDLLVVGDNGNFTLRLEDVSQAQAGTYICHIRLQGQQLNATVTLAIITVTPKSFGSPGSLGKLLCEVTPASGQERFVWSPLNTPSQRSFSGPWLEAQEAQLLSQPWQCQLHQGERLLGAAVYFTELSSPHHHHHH
Described as above. The method, then:
as §4, §5

Experiment [6] concerns the target T2, Recombinant human LAG-3 ECD-His6. Briefly: SPR Biacore T100, antibody captured on protein A, LAG-3 ECD-His6 analyte, 25 C, 1:1 model, geometric mean of 3 runs. The method, then:
as §1, §2, §3

B1: H5L7BW (antibody, human IgG1, kappa, V domains shown)
VH: QVQLQESGPGLVKPSETLSLTCTVSGFSLTAYGVNWIRQPPGKGLEWIGMIWDDGSTDYDSALKSRVTISVDTSKNQFSLKLSSVTAADTAVYYCAREGDVAFDYWGQGTLVTVSS
VL: DIQMTQSPSSLSASVGDRVTITCKSSQSLLNPSNQKNYLAWYQQKPGKAPKLLVYFASTRDSGVPSRFSGSGSGTDFTLTISSLQPEDFATYYCLQHFGTPPTFGQGTKLEIKR
notes: Afucosylated form of H5L7: plasmids encoding H5L7 expressed in the BioWa Potelligent (FUT8 knock-out CHO) cell line; also called afucosylated H5L7BW
B1: in experiment [1], the “EC50, depletion of antigen specific CD4 T cells by ADCC (primary human T cells, autologous NK cells)” value was 14 pg/mL and 3.4 ng/mL; the “EC50, depletion of antigen specific LAG-3 positive CD8 T cells by ADCC” value was 0.122 ng/mL and 17.5 ng/mL. The “KD ratio (H5L7BW against H5L7)” value in experiment [2] came to 1.05. Moreover, the “kd ratio (H5L7BW against H5L7)” value in experiment [3] amounted to 1.12. In addition, the Kd in experiment [4] worked out at 21 pM. In addition, in experiment [5], the Kd amounted to 24 pM. The koff in experiment [6] was found to be 0.00441 s⁻¹.
